The results in this text go back to PMC11432317, “Disulfide Bond Engineering of Soluble ACE2 for Thermal Stability Enhancement” (International Journal of Molecular Sciences, 2024).

In this experiment the target is T1, receptor binding domain (RBD) of the SARS-CoV-2 spike protein (residues 319-541) (SARS-CoV-2, UniProt P0DTC2 319-541).
T1 construct: also called spike RBD protein
Put plainly: SPR. As to conditions: both partners purified.

B1: I54C/K341C (M2) mutant sACE2-Fc (Fc fusion)
chain: QSTIEEQAKTFLDKFNHEAEDLFYQSSLASWNYNTNCTEENVQNMNNAGDKWSAFLKEQSTLAQMYPLQEIQNLTVKLQLQALQQNGSSVLSEDKSKRLNTILNTMSTIYSTGKVCNPDNPQECLLLEPGLNEIMANSLDYNERLWAWESWRSEVGKQLRPLYEEYVVLKNEMARANHYEDYGDYWRGDYEVNGVDGYDYSRGQLIEDVEHTFEEIKPLYEHLHAYVRAKLMNAYPSYISPIGCLPAHLLGDMWGRFWTNLYSLTVPFGQKPNIDVTDAMVDQAWDAQRIFKEAEKFFVSVGLPNMTQGFWENSMLTDPGNVQCAVCHPTAWDLGKGDFRILMCTKVTMDDFLTAHNEMGNIQYDMAYAAQPFLLRNGANEGFHEAVGEIMSLSAATPKHLKSIGLLSPDFQEDNETEINFLLKQALTIVGTLPFTYMLEKWRWMVFKGEIPKDQWMKKWWEMKREIVGVVEPVPHDETYCDPASLFHVSNDYSFIRYYTRTLYQFQFQEALCQAAKHEGPLHKCDISNSTEAGQKLFNMLRLGKSEPWTLALENVVGAKNMNVRPLLNYFEPLFTWLKDQNKNSFVGWSTDWSPYAD
notes: also called M2 sACE2-Fc
B1 returned a Kd of 22.1 nM.
